Test results: a protein production outcome set (Wang et al. 2014)

Experiment: label from the status in PepcDB records

Sequence | protein production
MAKIVQLPDDLSNKIAAGEVVERPASVVKELVENAIDANSSVIEIDVEEAGLASIKVLDDGEGMDAEDCRTAFLRHATSKIKDENDLFRVRTLGFRGEALPSIASVSHLSIKTSTGEGAGTHLTLQGGRIISEQKAPSRRGTEITVTNLFFNTPARLKYMKTIHTELGNITDVVNRIALAHPEVSIRLRHQGKTLLQTNGNGDVRHVLAAIYGTAVAKKMLPLEARSLDFEVKGYIALPEITRASRNYMSSVVNGRYIKNFPLVKAIHEGYHTLLPIGRHPITFIEINMDPLLVDVNVHPSKLEVRLSKETELHELIRDAIKDVFKQQQLIPSVQVPKKTAPLINKPEQQKLDFDQVREPAPLSDSDVEREYKPEPSFSAMKLSSLVKDPPPSAPVEREENVMQDTEPEWPGAEEYTPEAAPAVQAEPEQAGENVQDEETPKERVPIMYPIGQMHGTYILAQNENGLYIIDQHAAQERIKYEYFREKVGEVESEVQDLLVPLTFHYSKNEALTIDQHLDDLAKVGVFLESFGAGSYIVRCHPTWFPKGEETTIIEDIIQQVLDDRTIDIKKLREEAAIMMSCKGSIKANHHLRDDEITALLDELRRTSDPFTCPHGRPIIIHYSTYEMEKMFKRVM | failed
MSHDHHHHHGPGAAHGAGGHSHAPQDFGRAFAIGIALNMVFVVAEAAFGYFSNSMALIADAGHNLSDVAGLVVAWIAAGLSKRPPSARYTYGLRGSSILAALFNAVFLLLAVGAIGWEAVVRLFAPEPVAGITVMVVAGIGIVINAVTAWLFASGRHSDLNIRGAYLHMAADAAVSAAVVVAGVIILSTGWYWIDPAVSLIVAVVIVWGTWGLLRDSTALSLAAVPRDIDPTAVRAFLSKLPGVTQVHDLHIWGMSTTEVALTCHLVMPGGSPGDPFLVDLAHELQHDFGIAHTTVQIETDPNTVCALAPEHVV | failed
MLRYLALSEAGIAKLPRPQSRCYHSEKGVWGYKPIAQREFQVAEDVRASRNSQANVYRFVEAFRQHGHKLAAVNPISIRTSQQELQELSPAFYGLQTQEPVRTDGLLSGPQVAHNVAQLEQLLKDIYCGRSTSAEFSYVEDIEEREWLARNFETLDQQQLGKSERCEIAELLIKSQAWDNFMALKFPTVKRYGGEGAESMLAFFWQLLRDSVQANIEHVVLAMPHRGRTPLQAALLNMRPAKVFRKLSGASEFSEDIEAMSDVISHFHVSEQLKILGKKLSFSMVRNPSHLEAANPVAMGKTRSKQQARGEGAFGDGSQPFGEHVLNVILHGDAAFAGQGINQECLNMAYVPHFEVGGSLHLIVNNQVGFTTPGDRGRSTAYTSDLAKSIQAPVFHVNGDDPEALARVTSLAFRYQREFRKDIFIDLNCFRRWGHNELDDPTFTNPLVYKIVHQRESVPDLYAQQLAKEQVLSESKAKEMRDEYMKYLGEELALAPAYQPPPSYFEKQWTNFQLAPSKELTYWDTGLDYSLLHYIGQQSVTFPEDFNIHPHLLKTHVNARLKKLENGVKIDWSTAEALAIGSLMYQGHNVRISGEDVGRGTFSHRHAMLVDQQTNEMFIPLNSMEGGNGGKLELAHSILSEEAVLGFEYGMAIDNPNNLIIWEAQFGDFANGAQIIIDTFIVSGETKWMESNALVMLLPHGYDGAASEHSSCRIERFLQLCDSKETSADGDSVNVHIVNPTTPAQYYHVLRRQLARNFRKPLVVVAPKTLLRLPAATSTHEDFQPGTLFHNVLGDTIAKPEQVRKVILCSGKHYYTLAEEREKRQAYDTAILRLESLCPFPIQELQAQLAQYGNVQSFVWSQEEHRNMGAWTFVRPRFENLIGQQLHYCGRCEAPTPATGIGKVHKREVDEIVAAPFEL | failed
MDKLNKITVPASQKLRQLQKMVHDIKNNEGGIMDKIKKLKVKGPPSVPRRDYALDSPADEEEQWSDDFDSDYENPDEHSDSEMYVMPAEETGDDSYEPPPAEQQTRVVHPALPFTRGEYVDNRSSQRHSPPFSKTLPSKPSWPSAKARLASTLPAPNSLQKPQVPPKPKDLLEDEADYVVPVEDNDENYIHPRESSPPPAEKAPMVNRSTKPNSSSKHMSPPGTVAGRNSGVWDSKSSLPAAPSPLPRAGKKPATPLKTTPVPPLPNASNVCEEKPVPAERHRGSSHRQDTVQSPVFPPTQKPVHQKPVPLPRFPEAGSPAADGPFHSFPFNSTFADQEAELLGKPWYAGACDRKSAEEALHRSNKDGSFLIRKSSGHDSKQPYTLVAFFNKRVYNIPVRFIEATKQYALGKKKNGEEYFGSVVEIVNSHQHNPLVLIDSQNNTKDSTRLKYAVKVS | not failed
MKQQLESFIETTKPSALVADMFFPWATESAEKLGVPRLVFHGTSFFSLCCSYNMRIHKPHKKVATSSTPFVIPGLPGDIVITEDQANVAKEETPMGKFMKEVRESETNSFGVLVNSFYELESAYADFYRSFVAKRAWHIGPLSLSNRELGEKARRGKKANIDEQECLKWLDSKTPGSVVYLSFGSGTNFTNDQLLEIAFGLEGSGQSFIWVVRKNENQGDNEEWLPEGFKERTTGKGLIIPGWAPQVLILDHKAIGGFVTHCGWNSAIEGIAAGLPMVTWPMGAEQFYNEKLLTKVLRIGVNVGATELVKKGKLISRAQVEKAVREVIGGEKAEERRLWAKKLGEMAKAAVEEGGSSYNDVNKFMEELNGRK | failed
MANYPKELPAQTQSRQPGIESEMNPSPVYEYEDYKGADKLKGKVALITGGDSGIGRAVSVAYAKEGADIAIVYKDEHEDAEETKKRVEQEGVKCLLIAGDVGEEEFCNEAVEKTVKELGGLDILVNNAGEQHPKESIKDITSEQLHRTFKTNFYSQFYLTKKAIDYLKPGSAIINTTSINPYVGNPTLIDYTATKGAINAFTRTMAQALVKDGIRVNAVAPGPIWTPLIPATFPEETVAQFGQDTPMGRPGQPVEHVGCYVLLASDESSYMTGQTLHVNGGNFVT | not failed
MLLALLSLGTWPAVLTLLERRGRLPQHTYLDYSITNLLAAIIIAFTFGQIGSTKPDSPNFITQLAQDNWPSVMFAMAGGIVLSLGNLSTQYAWALVGLSVTEVITSSITVVIGSTLNYFLDDKINKAEILFPGVACFLIAVCLGSAVHRSNADDNKAKLRDFETAKQEASGPSTEIGTNSSKDLETNVTTKPKEGTARFLIELENTRAIKVFGKRKIIGLAITFFAGLCFSLFSPAFNLATNDQWNRLKQGVPKLVVYTAFFYFSVSCFIIALILNVVFLYYPVLGLPKSSFKAYLNDWNGRYWAFLAGFLCGFGNGLQFMGGQAAGYAAADSVQALPLVSTFWGVVLFGEYRRSSRKTYLLLFCMLFMFISAVAVLMASSGHRK | failed
MGHHHHHHSHNSSSCPEIQGFLHVKELGKKSWKKLYVCLRRSGLYCSTKGTSKEPRHLQLLADLEDSNIFSLIAGRKQYNAPTDHGLCIKPNKVRNETKELRLLCAEDEQTRTCWMTAFRLLKYGMLLYQNYRIPQQRKALLSPFSTPVRSVSENSLVAMDFSGQTGRVIENPAEAQSAALEEGHAWRKRSTRMNILGSQSPLHPSTLSTVIHRTQ | failed
MNAINTKVTPTKRKQVALFSSDPNFKRDVATRLDALAIYDVRVSETDDFLKGPPADTRPGIVILDLGGGDLLGKPGIVEARALWATVPLIAVSDELTSEQTRVLVRMNASDWLHKPLDGKELLNAVTFHDTGNQ | not failed
MSSATGSKIVVTGATGNVGTSVVRLLSEDPEVGTVLGLARRIPDWSPAKTEWAAVDLASEQSDLTSHFADADAVVHLAWAFQPTHDPATTWRTNVLGSIRVFEAVAAAGVPALVHASSVGAYSPGPKNHAVDESWPTHGWPDAAYCREKAYLERALDTFERDHPGIRVVRMRPAFLFKRESASEQRRIFGGRFLPGPAARPELLPFLPDVPGLRVQALHTDDAARAYRLAVRSADARGAFNLAAEPPVDAELLGELLGVRPVRLPRAAARSAIAAAWGMRLLPASPHLFDAVLRLPVMDCTRARVELGWGATRTATEVLEEFLRGLRQGAGADTEPMRGRKVG | failed
MKTSVIISTYTKERYKDVLRCIESVRHQSLKPYEILLILDPVKSLVEYYKNIVPKDVRVVVSDGFGLSKARNKGVFEAKGDIIAFIDDDAWADDLWLEKIVENYSDEGVYGVGGKIIPVFENGRPKWLPEELDWIVGCTYKGMPEQRTNIRNPIGANMSFRREAFEIAGPFRSEIGRYGKKLLSGEEAEFAMRLRKIKPDAKIIYEPSAVVYHKVPKSRVRISYAVKRAFYEGYSKAILAKEFPLEMESKYLNFILRSILRKLLSKGQQIEALVMSVIVMTVGIGNLYGTCRILLRK | failed
MSKFAMVFPGQGSQSLGMLADLAAQFPIVEATFSEASSVLGYDLWQLVQQGPAEELNKTWQTQPALLTASVAIWRIWQHQGGKLPSLMAGHSLGEYSALVCAGVLDFKQAVSLVELRGKLMQEAVPEGTGAMYAIIGLDNESIAKACEESAQGQVVSPVNFNSPGQVVIAGNKDAVERAGAACKAAGAKRALPLPVSVPSHCALMKPAADKLAVALEKIDFQEPLFPVVNNVDVKAEVSPVAIRSALVRQLYNPVRWTESVEFIAAEGVELLLEIGPGKVLTGLTKRIVDSLAAAAVNDVVTLNSALEH | failed
ALIAGHFADPFSVLGMHRTDAGLEVRALLPDATDVWVIEPKTGRKVGKLECLDSRGFFSGVLPRRKNAFRYQLAVTWHGQQNLIDDPYRFGPLLQ | failed
MSNESETDVDEETADEEEQAEGLQKGDVVKLAYTARTVDGGQLVDTTDEEVAEDDGIDTEQQEFGPRTIVLGENHIFPDVEQDIYGKEVGDEGDVTVAAADAFGEYDEEEVRTVSKDKIPEDDRYPGAHVDLEGEHGHVETIIGGRARVDFNHPLAGEDVEYDYEVLEEVTDREEKAQGIIQMMLDMELDVWFETDTVEEEQLVESEDEDEDEESEPEYETVEVEKETLYIEATPQLTMNQQWMMGKQQIAQQLTQLLDIDRIIVQEEIGGGGMGMPGMMGGMGGAGGADIEDALEDADVDAEEIVEEIEGAEE | failed
MTKPILKKKERVDQLFSTDVKIIQNKEVFSYSIDSVLLSRFPKIPSRGLIVDLCSGNGAVGLFAATRTKAKIIEVELQERLADMAQRSIQLNDLTNQVSMIRDDLKNLLDHVPRSKVDLILCNPPYFKAAETSKKNLSEHYLLARHEIATNLEEICKISQQVLKTNGRLAMVHRPDRFLEIIDTFKKYKLAPKRLQFVYPKLGKDANMLLIETIKDGSPNGMKILPPLIVHKDNGDYTDNIHEIYFGKGHQAYMYVLKCADDSLYTGYTTDIKKRLATHNAGKGAKYTRARLPVELIYVEQFNHKNAAMSAEGKLKQKTRAQKLHYIEEHQHINLVSQF | failed
MSWLIHAGEGRQYQVAPPVSWSQSYAEARMTDIQRLDDQTVERIAAGEVVERPASVVKELVENAIDADASRVDVVVEAGGTDGIRVTDDGIGMDREAVKTAVEEHTTSKIRDIADLEGGVGTLGFRGEALHAIGAVSRLTIRTRPRGGDVGTELVLEGGDVTSVSPAGCPEGTTMAVEDLFYNVPARRKYLKQESTEFAHVNTVVASYALANPDVAVSLTHGDRETFSTTGQGDLRETVMSVYGREVAESMISVGAGSEATGSGDEMDSFPDGPLDGVHGLVSHPETNRAGREYLSTYVNGRYVRAGTVRDAVIDAYGTQIAPDRYPFAVLFLDVPAGDVDVNVHPRKMEVRFADDEGVREQVRTAVEDALLREGLLRSTAPRGRSAPEQTEITPESDGATDSGGERAAPNGRDAIDDATTSGQTDTTATENSAEAPAQEPDTAPTARPDGTQTETGNCESSDTAPSIQSADTKPSSETGRTDGTSGESGTGQTGGSVSGGDSDSERPGASATGQTAAERGERKFTGGQEQARLGDDPEATHESLPSMRILGQLADTYVVAETDDGLVLVDQHAADERVNYERLKAKFEGETTTQALANPVELGLTAREAEVFDRRSDALASLGFHTARTGERSVEVRTLPGVIADAAGPDIVRDVLGAFVAGDDEAAATVEAAADELLGDLACYPSVTGNTSLTEGSVRELLAALDDCENPYACPHGRPTVIHIDRQELEDRFERDYPGHGGRRR | failed
MNSSIVNAGIDPQVRESLKSFVGEAIDYANTSGKDAAIAKFNDQNGTFVRGNLYVYAFDYNGTTLALPYQPQLIGTDLSGLQDPYGVNYTKLEHHHHHH | not failed
MRQARGRVHKNLGARVGSARPRSSLGHRTGIMKGQDMPGTVRLHRVLTTSPEKVYRAFVEADALAKWLPPNGFTCTVDHLEAKVGGTFKMSFRNFTTGGSHAFGGEYLELVPGERLRYTDRFDDPNLPGEIQVTVILKKVSVGTEIDITQAGIPDVIPVEACYLGWQESLRNLAKLVEPEINQ | failed
